Source: patent US20100120681A1 (Ablynx, published 2010)

T1: E. coli expressed VEGF109 (human, UniProt P15692 207-315)
T1 construct: also called hVEGF109
T1 sequence: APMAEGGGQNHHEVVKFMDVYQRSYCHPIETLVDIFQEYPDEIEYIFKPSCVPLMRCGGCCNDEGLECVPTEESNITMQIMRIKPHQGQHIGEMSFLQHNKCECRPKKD

B1: PVEGFPMP42A5 (VHH)
VHH: EVQLVESGGGLVQAGGSLRLSCAASGRTFSGVDVAWFRQAPGKEREFVAALAWSGIRTYYAVSVKGRFTISRGDPNDTVYLQMTSLKPEDTAVYYCATGRASRTSDYYTDRIYDSWGQGAQVTVSS
notes: tested as periplasmic extract; not shown: C-terminal c-myc tag and (His)6 tag from the vector
B2: PVEGFPMP42F10 (VHH)
VHH: EVQLVESGGGLVQAGGSLRLSCAASGRTFSGVDVAWFRQATGKEREFVAALAWSGIRTYYAVSVKGRFTISRGDPNDTVYLQMTSLKPEDTAVYYCATGRASRTSDYYTDRIYDSWGQGAQVTVSS
notes: as for B1
B3: PVEGFPMP42A3 (VHH)
VHH: EVPMVESGGGLVQAGGSLRLSCAASGRTFSGVDVAWFRQAPGKEREFVAALAWSGIRTYYAVSVKGRFTISRGDPNDTVYLQMTSLKPEDTAVYYCATGRASRTSDYYTDRIYDSWGQGAQVTVSS
notes: as for B1
B4: PVEGFPMP42C1 (VHH)
VHH: EVQLVESGGGLVQAGGSLRLSCAASGRTFSGVDVAWFRQAPGKEREFVAALAWSGIRTYYAVSVKGRFTISRGNPNDTVYLQMTSLKPEDTAVYYCATGRAYRGSDYYTDRIYDSWGQGAQVTVSS
notes: as for B1
B5: PVEGFPMP42B10 (VHH)
VHH: EVQLVESGGGLVQAGGSLRLSCTASGRALDTYTVTWFRQTPGKEREFVASNRWNAKPYTTDSVKGRFTISRDNAKNTVYLQMNSLKPEDTAVYYCAADLTTWADGPYRYWGQGTQVTVSS
notes: as for B1
B6: PVEGFPMP42C5 (VHH)
VHH: KVQLVESGGGLVQAGGSLRLSCAASGRALDTYTVTWFRQTPGKEREFVASIRWNAKPYTTDSVKGRFTISRDNAKNTVYLQMNSLKPEDTAIYYCAADLTTWADGPYRYWGQGTQVTVSS
notes: as for B1
B7: PVEGFPMP42G5 (VHH)
VHH: EVHLVESGGGLVQAGGSLRLSCAASGRALDTYTVTWFRQTPGKTREFVASVRWNAKPYTTDSVKGRFTISRDNAKNTVYLQMNSLKPEDTAVYYCAADPTTWADGPYRYWGQGTQVTVSS
notes: as for B1
B8: PVEGFPMP42H5 (VHH)
VHH: EVQLVESGGGLVQAGGSLRLSCTASGRALDTYTVTWFRQTPGKEREFVASNRWNAKPYVTDSVKGRFTISRDNAKNTVYLQMNSLKPEDTAVYYCAADLTTWADGPYRYWGQGTQVTVSS
notes: as for B1
B9: PVEGFPMP42F1 (VHH)
VHH: EVQLVESGGGLVQPGGSLRLSCAASGRALDTYTVTWFRQTPGKTREFVASVRWNAKPYTTDSVKGRFTISRDNAKNTVYLQMNSLKPEDTAVYYCAADPTTWADGPYRYWGQGTQVTVSS
notes: as for B1
B10: PVEGFPMP42E2 (VHH)
VHH: EVQLVESGGGLVQAGGSLRLSCAASGRALDTYTVTWFRQTPGKGREFLASIRWNAKPYTTDSVKGRFTMSRDNAKNTVYLQMNSLRPEDTAVYYCAADPTTWADGPYRYWGQGTQVTVSS
notes: as for B1
B11: PVEGFPMP42E3 (VHH)
VHH: EVQLVESGGGLVQAGGALRLSCAASGRTFETYRMGWFRQAPGKEREFVALINWSSGTTIYADSVKGRFTISGDNAKDTVYLEMNSLKPEDTAVYYCAVGRRWSGSYYSALAYQYWGQGTQVTVSS
notes: as for B1
B12: PVEGFPMP42C10 (VHH)
VHH: EVQLVESGGGLVQAGGALRLSCAVSGRTFESYRMGWFRQAPGKEREFVSLINWSSGKTIYADSVKGRFTISGDNAKDTVYLEMNSLKPEDTAVYYCAVGRAWSGSYYSALAYQYWGQGTQVTVSS
notes: as for B1
B13: PVEGFPMP42D5 (VHH)
VHH: EVQLVESGGGLVHAGGALRLSCAASGRAFETYRMGWFRQAPGKEREFVALINWSSGTTVYADSVKGRFTISGDNAKDTVYLEMNSLKPEDTAVYYCAVGRRWSGSYYSALAYQYWGQGTQVTVSS
notes: as for B1
B14: PVEGFPMP42D10 (VHH)
VHH: EVQLVESGGGLVQAGGALRLSCAASGRTFETYRMGWFRQAPGKEREFVALINWSSGITVYLDSVKGRFTISGDNAKDTVYLEMNSLKPEDTAVYYCAVGRAWSGSYYSALAYQYWGQGTQVTVSS
notes: as for B1
B15: PVEGFPMP42D7 (VHH)
VHH: EVQLVESGGGLVQAGGALRPSCAASGRTFETYRMGWFRQAPGKEREFVALINWSSGTTVYADSVKGRFTISGDNAKDTVYLEMNSLKPEDTAVYYCAVGRRWSGSYYSALAYQYWGQGTQVTVSS
notes: as for B1
B16: PVEGFPMP42E4 (VHH)
VHH: EVQLMESGGGLVQAGGSLRLSCAVSGRTFESYRMGWFRQAPGKEREFVSLINWSSGKTIYADSVKGRFTISGDNAKDTVYLEMNSLKPEDTAVYYCAVGRAWSGSYYSALAYQYWGQGTQVTVSS
notes: as for B1
B17: PVEGFPMP42H9 (VHH)
VHH: EVQLVESGGGLVQAGGALRLSCAASGRTFETYRMGWFRQAPGKEREFVALINWSSGTTVYADSVKGRFTISGDNAKDTVYLEMNSLKPEDTAVYYCAVGRRWSGSYYSALAYQYWGQGTQVTVSS
notes: as for B1
B18: PVEGFPMP42C7 (VHH)
VHH: EVQLVESGGGLVQAGGALRLSCAASGRTFETYRMGWFRQAPGKEREFVALINWSSGTTIYADSVKGRFTISGDNAKDTVYLEMNSLKPEDTAVYYCAVGRRWSGSYYSALAYQYWGKGTQVTVSS
notes: as for B1

What was measured:
[1] = target: T1, E. coli expressed VEGF109; assay: SPR Biacore 3000, periplasmic extract over VEGF109-coated CM5 chip
Method: (§1) Analysis of the results was done using BIAevaluation software. Off-rates were determined by the ‘fit kinetics separate ka/kd’ model, langmuir dissociation. A time interval of ±100s was used for the fitting.

hVEGF165 (R&D Systems) = target: T2, hVEGF165 (R&D Systems) (human, UniProt P15692 27-191); assay: SPR Biacore 3000, periplasmic extract over VEGF165-coated CM5 chip
T2 construct: mature; also called biotinylated hVEGF165
Method: as §1

T2 sequence (P15692 other isoform, or with tags, fused parts or gaps): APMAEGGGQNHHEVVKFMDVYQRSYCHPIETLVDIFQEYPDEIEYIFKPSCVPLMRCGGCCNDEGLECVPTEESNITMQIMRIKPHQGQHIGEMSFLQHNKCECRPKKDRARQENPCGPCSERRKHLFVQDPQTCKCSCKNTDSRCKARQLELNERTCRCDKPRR

| Binder | koff [1] [s⁻¹] | koff (hVEGF165 (R&D Systems)) [s⁻¹] |
| --- | --- | --- |
| B1 | 0.00167 | 0.00154 |
| B2 | 0.00176 | 0.00165 |
| B3 | 0.00284 | 0.00259 |
| B4 | 0.00825 | 0.00835 |
| B5 | 0.000227 | 0.000362 |
| B6 | 0.000448 | 0.000641 |
| B7 | 0.000251 | 0.000447 |
| B8 | 0.000315 | 0.000528 |
| B9 | 0.000278 | 0.000501 |
| B10 | 0.000134 | 0.000311 |
| B11 | 0.000689 | 0.0015 |
| B12 | 0.00753 | 0.0168 |
| B13 | 0.000368 | 0.00147 |
| B14 | 0.00411 | 0.00634 |
| B15 | 0.000176 | 0.00094 |
| B16 | 0.00774 | 0.02 |
| B17 | 0.000315 | 0.00149 |
| B18 | 0.00061 | 0.00151 |
